For experiment [1], the target named is tetrameric S100B (human, recombinant) (human, UniProt P04271).
Experiment [2] deals with dimeric S100B (human, recombinant) (Homo sapiens, UniProt P04271).
For experiment [3], the target named is anti-S100B nanobody Nb12 (llama). The experiment is described as follows: BLI; Nbs (20 μg/ml) loaded on Ni-NTA biosensor; S100B dimer or tetramer 25-250 nM in solution; 25 °C; 50 mM Tris-HCl pH 7.4, 150 mM NaCl; global 1:1 fit.
Chain of anti-S100B nanobody Nb12 (llama) (heavy, as listed by the source): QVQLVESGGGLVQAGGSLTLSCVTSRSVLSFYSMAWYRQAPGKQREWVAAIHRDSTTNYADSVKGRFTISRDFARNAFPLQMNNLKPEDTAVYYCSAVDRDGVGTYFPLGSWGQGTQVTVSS

B1: Nb13 (VHH)
VHH: QVQLVESGGGLVQPGGSLMLSCAASGFDFATYPMSWVRQAPGKEPEWIASIFPNGVTQSCADSVLGRFTISRDNTKNTLFLEMDRLKLADTAVYYCSKGGAAQSMFDDYWGQGTQVTVSS
B1: the binding result in experiment [1] is “binds”.

B2: Nb3 (VHH)
VHH: QVQLVESGGGLVQAGRSLRLSCAASGRSFSIFAVNWWRQAPGNQRELVASITGGGSIRYADSVKGRFTISRDNAENTVYLQMNSLKPEDTAVYYCNTLNFWGQGTQVTVSS
As for B2, the binding result in experiment [1] is listed as “binds”.

B3: Nb4 (VHH)
VHH: QVQLVESGGGLVQAGRSLRLSCAASGRSFSIFGVNWFRQAPENQRELVASITGGGSIRYADSVTGRFTISRDNAENTVYLQMNSLKPEDTAVYYCNILNFWGQGTQVTVSS
As for B3, the binding result in experiment [1] is “binds”.

B4: Nb21 (VHH)
VHH: QVQLVESGGGLVQAGDSLRLSCAASGRTFSNYGIGWFRQAPGKEREFVARVAWSTAITKYADAVKGRFTISRDNAKNMVYLQMNSLKPEDTAVYYCAAGKYGTAWITISGYDFWGQGTQVTVSS
For B4, in experiment [2], the binding result is “binds”.

B5: Nb22 (VHH)
VHH: QVQLVESGGGLVQPGGSLRLSCAASGTSFSTNVMGWYRQAPGKQRELVARILGGSSTYYADSVKGRFTISRDNDKNTLYLQMNSLKPEDTAVYYCTAGFGPGYWGQGTQVTVSS
As for B5, in experiment [2], the binding result is given as “binds”.

B6: Nb23 (VHH)
VHH: QVQLVESGGGLVQPGGSLRLSCAASGTSFSTNVMGWYRQAPGKQRELVARMLGGSSTYYADSVKGRFTISRDNAKNTVYLQMNSLKPEDTAVYYCAAGFGPGYWGQGTQVTVSS
B6: in experiment [2], the binding result is given as “binds”.

B7: Nb9 (VHH)
VHH: QVQLVESGGGLVQAGESLRLSCAASGAVFRIFAVNWWRQAPGKQRELVATITSAGDTKYHDSVKGRFTISRDNAKNTVALQMNNLKPEDTAVYQCNVLKYWGQGTQVTVSS
As for B7, the binding result in experiment [1] is “binds”.

B8: Nb10 (VHH)
VHH: QVQLVESGGGLVQAGESLRLSCAASGAVFRIFAVNWWRQAPGKQRELVATITSAGDTKYHDSVKGRFTISRDIAKNTVALQMNNLKPEDTAVYQCNVLKYWGQGTQVTVSS
In the case of B8, in experiment [1], the binding result is given as “binds”.

B9: dimeric S100B (human, recombinant) (natural protein)
chain: MSELEKAMVALIDVFHQYSGREGDKHKLKKSELKELINNELSHFLEEIKEQEVVDKVMETLDNDGDGECDFQEFMAFVAMVTTACHEFFEHE
The term Kd denotes the equilibrium constant for the complex coming apart. Low readings indicate a tighter complex, high ones a looser complex. In turn, B9 had an equilibrium dissociation constant (Kd) in experiment [3] of 4 µM. In other words, the single-digit micromolar range.

B10: Nb2 (VHH)
VHH: QVQLVESGGGWVQAGGSLRLSCTASGSGFGIFAINWFRQAPGKERELVASLSSIGSPKYAESVKGRFTISRDNAKNTVYLQMNSLKPEDTAVYYCNYLNRWGQGTQVTVSS
As to B10, the binding result in experiment [1] is given as “binds”.

B11: Nb27 (VHH)
VHH: QVQLVESGGGLVQAGGSLKLSCAAPGWTVSISYMGWFRQAQGKEREFVGAMSWSDDRISYADSVKGRFTISRDNAKTTVFLQMTSLKPEDTAVYYCAVRRKWSESYDYWGQGTQVTVSS
With B11, the binding result in experiment [2] is “binds”.

B12: Nb25 (VHH)
VHH: QVQLVESGGGLVQPGGSLRLSCTVSGIILGSRAMGWYRQTPGKQREFVATISTSGGTTNYADSVKGRFTISRDNAKNTVYLQMNSLKPEDTAIYYCNTLSQVLADRGWGQGTQVTVSS
With B12, in experiment [2], the binding result is “binds”.

B13: Nb26 (VHH)
VHH: QVQLVESGGGLVRPGGSLRLSCTVSGIMFGSRAMGWYRQTPGKQRDFVATISTSGGTTNYADSVKGRFTISRDSAKNTVYLQMNSLKPEDTAVYYCNTVSAVLLDRGWGQGTQVTVSS
In the case of B13, the binding result in experiment [2] is listed as “binds”.

B14: Nb6 (VHH)
VHH: QVQLVESGGGLVQAGGSLRLSCAASGNILRLNAMAWYRQAPGKQRELVAYITYKGPTNYAESVKGRFTISRDMAKNTVYLQMNSLKPEDTAAYYCNADYIRTPGPFWGQGTQVTVSS
Consider B14, for which the binding result in experiment [1] is “binds”.

B15: Nb7 (VHH)
VHH: QVQLVESGGGLVQAGGSLRLSCAASGNILRLNAMAWYRQAPGKQRELVADNTFKGPTNYADSVKGRFTISRDMAKNTVYLQMNSLKPEDTAAYYCNADYIRTPGHFWGQGTQVTVSS
As for B15, the binding result in experiment [1] is given as “binds”.

B16: Nb5 (VHH)
VHH: QVQLVESGGGLVQAGGSQRLSCTASGRIFSINDMGWYRQAPGDQRELVAVITSGGATNYTDSVKGRFTISRDDAKNTVYLQMNSLKPEDTAVYYCNADLRTSLKWPPVFHRYWGQGTQVTVSS
As for B16, in experiment [1], the binding result is listed as “binds”.

B17: Nb28 (VHH)
VHH: QVQLVESGGGLVQTGGSLNLSCAPFGTVLSDNDVGWYRQAPGSQRELVAEVDVRGGTNYADSVKGRFTISRDSAKKITFLQMNSLKSEDTAVYYCASDYGLGLLVGLPEYRGQGTQVTVSS
With B17, the binding result in experiment [2] is reported as “binds”.

B18: Nb20 (VHH)
VHH: QVQLVESGGGLVQAGASLRLSCAASGRTFSSNYMGWFRQAPGKEREFVGAISWTSGSTSYADSVKGRFTISRDKAKNTVDLQMNSLNPDDTAVYYCAAGPSHRLWFSGRTLATYYDYWGQGTQVTVSS
Regarding B18, the binding result in experiment [2] was “binds”.

B19: Nb15 (VHH)
VHH: QVQLVESGGGLVQAGGSLRLSCVASGILFSNNPMAWYRGAPGKQRELVARIWSGGRTIYGDSLKGRVTISRDNAKNTVYLQMNSLQPEDTAVYYCNSPYTNGWGQGTQVTVSS
As for B19, the binding result in experiment [2] is “binds”.

B20: Nb11 (VHH)
VHH: QVQLVESGGGLVQAGGSLRLSCAASASIGIFTVRWWRQAPGKQRALEQRELVAGISGGGTTNFADSVKGRFTISRDNDKKMVYLEMNNLKPEDTAVYYCNYLNSWGQGTQVTVSS
Consider B20, for which the binding result in experiment [1] is on record as “binds”.

B21: Nb24 (VHH)
VHH: QVQLVESGGGLVQDGGSLRLSCAASGLTFSSLPMGWFRQAPGKEREFVAAMNWGEISTYYADSVKGRFTISRDNGKKTVYLQMNSLKPEDTAVYTCAADLRYSNLKYSRAGYWGQGTQVTVSS
On to B21, for which the binding result in experiment [2] is reported as “binds”.

B22: Nb16 (VHH)
VHH: QVQLVESGGGLVQAGGSLRLSCAASGRTVSSKAMGWYRQAPGKQRELVASISTSGSTTVYADSVKGRFTISRDNAKATVYLRMNMLKPEDTAVYYCNYLVGPIDWGQGTQVTVSS
Consider B22, for which the binding result in experiment [2] is reported as “binds”.

B23: Nb17 (VHH)
VHH: QVQLVESGGGLVQAGGSLRLSCAASGRTVSSKAMGWYRQAPGKQRELVASISTSGSTTNYADSVKGRFTISRDNAEAPVYLQMNMLKPGDTAVYYCNYLVGPADWGQGTQVTVSS
On to B23, for which the binding result in experiment [2] was “binds”.

B24: Nb14 (VHH)
VHH: QVQLVESGGGLVQAGDSLRLSCAASARTFSIHAMGWFRQAPGKEREFVAAIGWTGGSPDYSDSAKGRFAISRDNAKNTVFLQMNSLKPEDTAVYYCAFHRAGSYDSTTSYDYWGQGTQVTVSS
On to B24, for which the binding result in experiment [2] is recorded as “binds”.

B25: Nb19 (VHH)
VHH: QVQLVESGGGLVQAGGSLRLSCAASGRTFSSYKMGWFRQAPGKEREFVAAFSWTGLNTNYADSVKGRFTISRDNAKSTVYLQMNSLKPEDTAVYYCAAGLGRTVIAGVDYWGQGTQVTVSS
For the molecule B25, the binding result in experiment [2] is given as “binds”.

B26: Nb8 (VHH)
VHH: QVQLVESGGGLVQAGGSLRLACVTSGNIFSISFMRWYRQAPGKQRELVATITSGDRTTYADSVKGRFTISRDNAKNTVYLQMNSLEPEDTAVYYCDINGLRYAGIRSWGQGTQVTVSS
On to B26, for which the binding result in experiment [1] was “binds”.

Values taken from publication PMC11667159 (The Journal of Biological Chemistry, 2024).
